Paper PMC6035297 (2018)
Square brackets hold non-standard residues; d marks the D form. Ends that are not written are not given here. pY = N[C@@H](Cc1ccc(OP(=O)(O)O)cc1)C(=O)O

Target: T1, CTpY phosphopeptide (PLCγ1 pTyr783) 779-790 (Homo sapiens, UniProt P19174)
T1 chain: NPGF[pY]VEANPMP
Test: NMR titration

- Kd: < 15 µM
B1: PLCγ1 tandem SH2 (NSH2CSH2ΔCT) nSH2-cSH2 545-770 (protein)
chain: HSNEKWFHGKLGAGRDGRHIAERLLTEYCIETGAPDGSFLVRESETFVGDYTLSFWRNGKVQHCRIHSRQDAGTPKFFLTDNLVFDSLYDLITHYQQVPLRCNEFEMRLSEPVPQTNAHESKEWYHASLTRAQAEHMLMRVPRDGAFLVRKRNEPNSYAISFRAEGKIKHCRVQQEGQTVMLGNSEFDSLVDLISYYEKHPLYRKMKLRYPINEEALEKIGTAEPD
